The text below walks through data of PMC4786922.

This data set deals with S1 zinc finger array (six-finger designed ZF) (artificial (designed)). Briefly: EMSA. Conditions: EMSA: ZBA buffer (composition not given), 0.05% NP-40, 0.1 mg/ml BSA, 10% glycerol, 35-75 pM target, 1.5 h at room temperature; pH not given.

The term Kd denotes the equilibrium constant for the complex coming apart. “CCTCTTCGCTATTACGCCAGCCATGCGTAGGGAGCCGCGGAACGTTCGATCGTACTCGAGTCAGGGTG (double strand) [S1 target site EMSA probe]”: the Kd came to 5 nM.
